Measurements taken from US7641891B2, “Chimeric, human and humanized anti-CSAp monoclonal antibodies” (Immunomedics, Inc., priority 1998, dated 2010).

B1: cMu-9-2: chimeric Mu-9 constructed from the VH and Vk2 and expressed in Sp2/0 cells (antibody, V domains shown)
VH: QVQLQESGPELVKPGASVKMSCRASGYTFTEYVITWVKQRTGQGLEWIGEIYPGSGSTSYNEKFKGKATLTADKSSNTAYMHLSSLTSEDSAVYFCTREDLGGQGTLVTVSS
VL: DILQTQTPLSLPVSLGDQASISCRSSQSIVHSNGNTYLEWYLQKPGQSPKLLIYKVSNRFSGVPDRFSGTGSGTDFTVRISRVEAEDLGLYYCFQGSRVPYTFGGGTKLEIKR
modifications: human constant regions
notes: chimeric Mu-9 constructed from the VH and Vk2 and expressed in Sp2/0 cells
B2: murine Mu-9: murine monoclonal antibody of the IgG1 subtype, directed against the colon-specific antigen-p mucin (CSAp) (antibody, listed as Murine sp., V domains shown)
VH: VQLQESGPELVKPGASVKMSCRASGYTFTEYVITWVKQRTGQGLEWIGEIYPGSGSTSYNEKFKGKATLTADKSSNTAYMHLSSLTSEDSAVYFCTREDLGGQGTLVTVSS
VL: AVLMTQTPLSLPVSLGDQASISCRSSQSIVHSNGNTYLEWYLQKPGQSPKLLIYKVSNRFSGVPDRFSGTGSGTDFTVRISRVEAEDLGLYYCFQGSRVPYTFGGGTKLEIK
modifications: murine IgG1 constant regions

Assays:
CSAp antigen [1] = test: Mu-9 Direct Binding Assay (ELISA); parameters: species or system human; conditions: wells coated with GW-39 tumor extract fraction, murine Mu-9 as standard
Description: Chimeric antibody supernatant (100 μl) or purified antibody (0-1 μg/ml) was added and incubated at room temperature for 1 hour. Unbound proteins were removed by washing six times with wash buffer (PBS containing 0.05% Tween 20). Purified murine Mu-9 protein was used as the standard. The bound antibodies were allowed to react with peroxidase-conjugated goat anti-human IgG, Fc fragment-specific (Jackson ImmunoResearch, West Grove Pa.) and peroxidase conjugated goat anti-mouse IgG, Fc fragment-specific antibodies (Jackson ImmunoResearch). […] The color was developed in the dark for 1 hour, the reaction was stopped with 50 μl of 4NH2SO4, and the absorbance at 490 nm was measured in a Dynatech plate reader (Dynatech Labs, Sussex, UK).
The methods for expression and binding activity assays for hMu9 were same as described for cMu9. Approximately 10 and 30 μg of linearized hMu9VkpKh and hMu9VHpG1g were co-transfected into SP2/0 cells by electroporation. Transfected cells were grown in 96-well cell culture plates in complete medium for 2 days and then selected by the addition of hygromycin at a final concentration of 500 U/ml. Typically, the colonies began to emerge 2-3 weeks after electroporation and were assayed for antibody secretion by enzyme-linked immunosorbent assay (ELISA). […] The purified antibodies (5 μg) were analyzed by SDS-PAGE on a 4-20% gradient gel under reducing conditions.

CSAp antigen [2] = test: Competitive Binding Assay against HRP-conjugated Mu-9; parameters: species or system human; conditions: for Competition with the binding of HRP-conjugated Mu-9 to the CSAp antigen: antigen-coated wells, competing antibody 0-50 μg/ml; for Binding affinity to CSAp antigen compared with murine Mu-9: see Example 8-9
Description: Murine Mu-9 IgG was conjugated with horseradish peroxidase (HRP) (Sigma). The peroxidase-conjugated Mu-9 was first tested for binding on microwells coated with CSAp antigen, and the optimum concentration was determined to be 0.2 μg/ml. Peroxidase-conjugated Mu-9 was mixed with various concentrations of either murine or chimeric Mu-9 (0-50 μg/ml) before addition to the antigen-coated wells. Binding of the peroxidase-conjugated Mu-9 to the antigen in the presence of the competing antibodies was measured at 490 nm after the addition of the substrate as described earlier.
The binding affinity of hMu-9 was compared in a competitive binding assay as described in Example 6.

Molecule	Direct binding to CSAp antigen (CSAp antigen [1])	Direct binding to CSAp antigen (CSAp antigen [1]; listed as cMu-9)	Competition with the binding of HRP-conjugated Mu-9 to the CSAp antigen (CSAp antigen [2])	Binding affinity to CSAp antigen compared with murine Mu-9 (CSAp antigen [2])	Binding affinity to CSAp antigen compared with murine Mu-9 (CSAp antigen [2]; listed as cMu-9)
B1	virtually superimposable on that of the murine Mu-9	bound avidly to the CSAp antigen	competed equally well	comparable binding affinity to CSAp antigen as that of murine Mu-9	comparable to that of its murine counterpart
B2	–	–	competed equally well	–	–
